Results reported in PMC8256032, “Regulation of Dishevelled DEP domain swapping by conserved phosphorylation sites” (Proceedings of the National Academy of Sciences of the …, 2021).
Residue numbers refer to the chain shown, from its start.

B1: Lipoyl-tagged DEP (Lip-DEP_(402–510)), wild type (domain or fragment, human, UniProt O14641 402-510, looked up)
chain: ITSGSSLPDGCEGRGLSVHTDMASVTKAMAAPESGLEVRDRMWLKITIPNAFLGSDVVDWLYHHVEGFPERREARKYASGLLKAGLIRHTVNKITFSEQCYYVFGDLSG
notes: also called Lip-DEP402 to 510; source: E. coli BL21-CodonPlus(DE3)-RIL, purified (NiNTA, SEC)
B2: Lip-DEP_(402–510) S418E (domain or fragment, human, UniProt O14641 402-510, looked up)
chain: B1 chain with S17E
notes: source: E. coli BL21-CodonPlus(DE3)-RIL, purified (NiNTA, SEC)
B3: cleaved wt DEP monomer (Lip tag removed) (domain or fragment, human, UniProt O14641 402-510, looked up)
chain: B1 chain
notes: also called monomeric DEP; source: E. coli BL21-CodonPlus(DE3)-RIL, purified (NiNTA, SEC), Lip tag removed by tobacco etch virus protease
B4: Lip-DEP_(402–510) S435E (domain or fragment, human, UniProt O14641 402-510, looked up)
chain: B1 chain with S34E
notes: as for B2
B5: Lip-DEP_(402–510) S418A (domain or fragment, human, UniProt O14641 402-510, looked up)
chain: B1 chain with S17A
notes: as for B2
B6: Lip-DEP_(402–510) S435A (domain or fragment, human, UniProt O14641 402-510, looked up)
chain: B1 chain with S34A
notes: as for B2

Key:
SNAP-FZD5 = SNAP-FZD5 (UniProt Q13467); test: SNAP-FZD5-dependent recruitment of DEP-GFP to the plasma membrane (cell scoring); conditions: n = 100 cells scored in each case, read off a plot; for other: % of cells with strong recruitment (category 'strong'): parent: est. 98
Sequence of SNAP-FZD5 (Q13467 27-585): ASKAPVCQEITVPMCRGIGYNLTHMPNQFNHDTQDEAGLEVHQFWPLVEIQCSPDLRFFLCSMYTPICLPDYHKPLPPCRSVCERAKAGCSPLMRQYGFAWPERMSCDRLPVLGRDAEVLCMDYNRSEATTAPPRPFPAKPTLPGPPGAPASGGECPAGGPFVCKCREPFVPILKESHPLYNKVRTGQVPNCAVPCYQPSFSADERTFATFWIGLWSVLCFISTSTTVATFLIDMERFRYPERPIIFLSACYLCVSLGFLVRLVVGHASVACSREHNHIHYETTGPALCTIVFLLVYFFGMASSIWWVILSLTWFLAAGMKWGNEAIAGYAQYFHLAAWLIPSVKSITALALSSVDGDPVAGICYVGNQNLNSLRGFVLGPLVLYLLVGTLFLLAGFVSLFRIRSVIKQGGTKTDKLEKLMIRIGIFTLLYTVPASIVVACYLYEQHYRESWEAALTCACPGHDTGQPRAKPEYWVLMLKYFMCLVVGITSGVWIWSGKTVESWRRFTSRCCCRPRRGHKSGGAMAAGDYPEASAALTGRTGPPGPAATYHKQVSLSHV

[1] = target: the molecule itself; test: SEC-MALS; unfractionated purified Lip-DEP_(402–510), Lip tag kept; Tris-buffered saline (30 mM Tris, 300 mM NaCl, NaN3 0.03%, pH 7.4), Superdex S-200 10/300
[2] = target: the molecule itself; test: SEC-MALS; cleaved DEP monomer incubated with urea (0 to 5 M for wt; 3 M for the mutants) for 8 h at 25 °C, then SEC-MALS in Tris-buffered saline (30 mM Tris, 300 mM NaCl, pH 7.4); monomer to domain-swapped dimer

Row | Molecule | other: % of cells with strong recruitment (category 'strong') (SNAP-FZD5) | binding result [1] | also measured
1 | DEP tagged with GFP (DEP-GFP), wild type (from UniProt O14641) S418A | 98 % of cells |  | 
2 | DEP tagged with GFP (DEP-GFP), wild type (from UniProt O14641) S435A | 97 % of cells |  | 
3 | DEP tagged with GFP (DEP-GFP), wild type (from UniProt O14641) S418E | 100 % of cells |  | 
4 | DEP tagged with GFP (DEP-GFP), wild type (from UniProt O14641) S435E | 99 % of cells |  | 
5 | DEP tagged with GFP (DEP-GFP), wild type (from UniProt O14641) L445E |  |  | other: % of cells with no recruitment (category 'none') (SNAP-FZD5): 94 % of cells
6 | B1 |  |  | stoichiometry N [1]: 2
7 | B2 |  | binds | 
8 | B3 |  |  | stoichiometry N [2]: 2
9 | B4 |  | binds | 
10 | B5 |  | binds | 
11 | B6 |  | binds | 
